The term EC50 denotes the concentration at which the effect is half-maximal.

For test [1], the target named is T1, mCCRL2 (Mus musculus, UniProt O35457).
T1 construct: The coding regions of mCCRL2, huCCRL2, mCRTH2, and huCCR10 were amplified from genomic DNA; expressed in transfected cells
T1 sequence (O35457 1-360): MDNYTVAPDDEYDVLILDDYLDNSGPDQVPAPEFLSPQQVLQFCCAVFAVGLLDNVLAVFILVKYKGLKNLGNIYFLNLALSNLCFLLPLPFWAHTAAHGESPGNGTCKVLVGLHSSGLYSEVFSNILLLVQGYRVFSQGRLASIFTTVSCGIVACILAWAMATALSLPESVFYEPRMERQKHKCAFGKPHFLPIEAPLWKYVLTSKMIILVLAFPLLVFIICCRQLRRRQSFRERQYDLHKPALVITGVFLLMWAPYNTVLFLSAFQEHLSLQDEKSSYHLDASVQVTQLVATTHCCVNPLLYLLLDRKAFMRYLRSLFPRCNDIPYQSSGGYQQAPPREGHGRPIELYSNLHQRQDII
The test can be described thus: in vitro transwell chemotaxis, mCCRL2/L1.2 transfectants. The class given is cell-based. The method, then: For migration experiments using cell lines, 2.5×10^5 cells/100 μl chemotaxis media (RPMI+10% fetal calf serum) were added to the top wells of 5-um pore transwell inserts (Costar, Corning, N.Y., USA), and test samples in 600 μl media were added to the bottom wells. After incubating the transwell plates for 1.5 hours at 37° C., the bottom wells were harvested and flow cytometry was used to assess migration. For primary cell chemotaxis, 1×10^6 cells/100 μl were added to the top well, and, following a 2 hour incubation at 37° C., polystyrene beads (15.0 μm diameter, Polysciences, Warrington, Pa., USA) were added to each well to facilitate normalization of the cell count. The cells were then stained for c-kit, F4/80, and/or CD11b expression and analyzed by flow cytometry. A ratio was generated and percent input migration was calculated.

The target in test [2] is T1, mCCRL2. The test can be described thus: chemerin binding/anti-mCCRL2 mAb displacement on peritoneal mast cells (flow cytometry). To be noted: 1000 nM. For orientation: In flow cytometry, cells or beads pass a laser one at a time.
Test [3] has as its target T1, mCCRL2. The test can be described thus: intracellular calcium mobilization, CCRL2/HEK293 transfectants. The test is classed as cell-based. To be noted: HEK293 background, alone or in combination. The method, then: Chemoattractant-stimulated Ca^2+-mobilization was performed following Alliance for Cell Signaling protocol ID PP00000210. Cells (3×10^6/mL) were loaded with 4 μM Fluo4-AM and 0.16% Pluronic acid F-127 (Molecular Probes) in modified Iscove's medium (Iscove's medium with 1% heat inactivated bovine calf serum and 2 mM L-glutamine, Invitrogen) for 30 minutes at 37° C. The samples were mixed every 10 minutes during loading, washed once, resuspended at up to 2×10^6/mL in the same buffer, and allowed to rest in the dark for 30 minutes at room temperature. Chemoattractant-stimulated change in Ca^2+-sensitive fluorescence of Fluo-4 was measured over real-time with a FACsScan flow cytometer and CellQuest software (BD Biosciences) at room temperature under constant stirring (500 rpm). Fluorescent data were acquired continuously up to 1024 seconds at 1-second intervals. The samples were analyzed for 45 seconds to establish basal state, removed from the nozzle to add the stimuli, and then returned to the nozzle. Mean channel fluorescence over time was analyzed with FlowJo (TreeStar, Ashland, Oreg., USA) software. […] 500 μl of these chemerin-loaded cells were added to mCMKLR1/L1.2 cells loaded with Fluo4-AM, and calcium mobilization was evaluated.

Test [4] has as its target T2, mouse CCRL2 (chemokine (CC motif) receptor-like 2), untagged (mouse, UniProt O35457 1-360).
T2 construct: whole, on cells; also called mCCRL2; mCCRL2/L1.2
T2 sequence (looked up): T1 sequence (O35457 1-360)
Nature of the test: flow cytometry; chemerin inhibits staining of mouse peritoneal mast cells by the competitor anti-mCCRL2 BZ5B8; chemerin blocks anti-mCCRL2 mAb staining of mouse peritoneal mast cells.

The target of test [5] is T3, mouse CMKLR1 (chemokine-like receptor 1), untagged (mouse, UniProt P97468 1-371).
T3 construct: whole, on cells; also called mCMKLR1; mCMKLR1/L1.2
T3 sequence (looked up): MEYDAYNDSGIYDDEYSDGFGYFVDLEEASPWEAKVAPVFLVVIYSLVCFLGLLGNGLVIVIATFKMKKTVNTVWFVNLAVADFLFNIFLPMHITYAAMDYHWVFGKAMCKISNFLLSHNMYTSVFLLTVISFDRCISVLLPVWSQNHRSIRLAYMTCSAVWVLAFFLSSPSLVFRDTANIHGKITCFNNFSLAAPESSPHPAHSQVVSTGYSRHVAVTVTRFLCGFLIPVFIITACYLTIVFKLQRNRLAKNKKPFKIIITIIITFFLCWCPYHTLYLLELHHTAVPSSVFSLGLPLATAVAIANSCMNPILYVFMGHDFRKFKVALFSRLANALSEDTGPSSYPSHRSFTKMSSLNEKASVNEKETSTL
Nature of the test: radioligand competition on L1.2 transfectants.

In test [6] the target is T3, mouse CMKLR1 (chemokine-like receptor …). Nature of the test: radioligand competition on L1.2 transfectants, 125I-chemerin 21-148 displaced by the peptide … [panel B, legend box]. A general note: Loss of bound radioactivity is the signal in a displacement assay; it reports binding, not function.
Test [7] shares this target. Nature of the test: radioligand competition on L1.2 transfectants; displaces 125I-chemerin 21-148; 9-mer peptide … on CMKLR1.

On to “CCL2: chemokine purchased from R&D Systems”, for which the “synergy of CCL2 and chemerin in transwell migration” value in test [1] (CCL2 with chemerin) is reported as “did not synergize”. Moreover, the transwell migration result in test [1] (range of doses, CXCL12 and CCL19 act via endogenous CXCR4 and CCR7) was “did not induce migration”. For the same molecule, in test [2], the “effect on CCRL2 staining” value was “no effect”. In addition, the “agonism, intracellular calcium mobilization” value in test [3] is reported as “neither CCL2 nor chemerin functioned as agonists”.

B1: human chemerin (as used to block anti-mCCRL2 staining, FIG. 6 Panel A) (ligand, UniProt Q99969 21-157, looked up)
chain: ELTEAQRRGLQVALEEFHKHPPVQWAFQETSVESAVDTPFPAGIFVRLEFKLQQTSCRKRDWKKPECKVRPNGRKRKCLACIKLGSEDKVLGRLVHCPIETQVLREAEEHQETQCLRVQRAGEDPHSFYFPGQFAFS
The molecule B1 yielded a concentration for a half-maximal effect (EC50) in test [4] of 21 nM.

B2: bioactive 9-mer carboxyl-terminal chemerin peptide (residues 149-157) (peptide)
peptide: YFPGQFAFS
notes: Synthetic peptide; also called bioactive chemerin peptide
Take B2: in test [5], the “fold less potent (against chemerin protein)” value is 10 fold. Moreover, the EC50 is 29 nM in test [6] and 26.2 nM in test [7].

The record behind these values is patent US20100092974A1, “METHODS FOR SCREENING FOR MODULATORS OF CCRL2” (The Board of Trustees of the Leland Stanford Junior …, priority 2008, published 2010).
